Conditions in all cases: protein: recombinant; tags: N-His6;C-myc; label: 32P guide strand; 2 nt 3' overhangs
In one data set the target is T1, TRBP-ΔdsRBD3 (human, UniProt Q15633 1-292).
T1 sequence: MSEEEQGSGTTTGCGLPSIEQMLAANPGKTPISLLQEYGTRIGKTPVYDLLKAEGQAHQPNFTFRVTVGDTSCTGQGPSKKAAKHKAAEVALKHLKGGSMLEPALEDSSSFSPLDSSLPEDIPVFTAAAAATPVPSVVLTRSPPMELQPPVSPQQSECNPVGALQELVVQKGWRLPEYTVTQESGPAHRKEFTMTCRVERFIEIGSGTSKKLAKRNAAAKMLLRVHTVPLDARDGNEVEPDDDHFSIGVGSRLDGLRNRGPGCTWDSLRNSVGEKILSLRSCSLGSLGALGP
Nature of the data set: EMSA; complex 1; EMSA: 20 mM Tris pH 7.5, 150 mM NaCl, 2 mM EDTA, 1 mM 2-mercaptoethanol, 1 mM DTT, 50 ng/ul salmon sperm DNA, 0.4 U/ul RNasin, 0.5 nM 32P-siRNA, 30 min on ice.

The next data set addresses T2, TRBP-WT (human, UniProt Q15633 1-366).
T2 sequence: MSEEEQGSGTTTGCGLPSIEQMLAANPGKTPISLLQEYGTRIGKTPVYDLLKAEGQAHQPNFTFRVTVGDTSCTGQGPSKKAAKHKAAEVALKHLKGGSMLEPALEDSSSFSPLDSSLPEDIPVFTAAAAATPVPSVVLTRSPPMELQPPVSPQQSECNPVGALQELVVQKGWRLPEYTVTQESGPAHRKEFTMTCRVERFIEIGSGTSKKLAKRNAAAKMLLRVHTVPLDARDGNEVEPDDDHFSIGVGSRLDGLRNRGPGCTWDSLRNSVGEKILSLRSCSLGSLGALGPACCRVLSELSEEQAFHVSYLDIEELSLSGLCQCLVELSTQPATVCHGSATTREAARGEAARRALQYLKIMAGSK
As to the kind of experiment: EMSA; complex 1 (monomer); EMSA: 20 mM Tris pH 7.5, 150 mM NaCl, 2 mM EDTA, 1 mM 2-mercaptoethanol, 1 mM DTT, 50 ng/ul salmon sperm DNA, 0.4 U/ul RNasin, 0.5 nM 32P-siRNA, 30 min on ice.

Another data set deals with T3, TRBP-dsRBDmt1 (human, UniProt Q15633 1-366, K80A;K81A).
T3 sequence: T2 sequence with K80A, K81A
As to the kind of experiment: EMSA; single-step complex; EMSA: 20 mM Tris pH 7.5, 150 mM NaCl, 2 mM EDTA, 1 mM 2-mercaptoethanol, 1 mM DTT, 50 ng/ul salmon sperm DNA, 0.4 U/ul RNasin, 0.5 nM 32P-siRNA, 30 min on ice.

The target in the next data set is T4, TRBP-dsRBDmt2 (human, UniProt Q15633 1-366, K210A;K211A).
T4 sequence: T2 sequence with K210A, K211A
The data set is described as above.

In the next data set the target is T5, TRBP-dsRBDmt1+2 (human, UniProt Q15633 1-366, K80A;K81A;K210A;K211A).
T5 sequence: T2 sequence with K80A, K81A, K210A, K211A
As to the kind of experiment: EMSA; virtually no binding; Kd ND; EMSA: 20 mM Tris pH 7.5, 150 mM NaCl, 2 mM EDTA, 1 mM 2-mercaptoethanol, 1 mM DTT, 50 ng/ul salmon sperm DNA, 0.4 U/ul RNasin, 0.5 nM 32P-siRNA, 30 min on ice.

Residue numbers refer to the chain shown, from its start.

B1: siLuc2-153 (dsRNA)
RNA 1: UCGAAGUAUUCCGCGUACGUG
RNA 2: CGUACGCGGAAUACUUCGAUU
Turning to B1, the Kd with TRBP-ΔdsRBD3 amounted to 12 nM; in the data set with TRBP-WT, 4 nM; with TRBP-dsRBDmt1, 260 nM; with TRBP-dsRBDmt2, 520 nM. For the same molecule, the binding result with TRBP-dsRBDmt1+2 is recorded as “no binding”.

The values above are taken from article PMC3642127, “Distinguishable In Vitro Binding Mode of Monomeric TRBP and Dimeric PACT with siRNA” (PLoS ONE, 2013).
